Tests used:
[1] = biological target: Endothelial nitric oxide synthase (Homo sapiens*) (UniProt P29474)
[2] = biological target: purified human alpha globin (human) (UniProt P69905); experiment: BLI
Sequence of purified human alpha globin (human) (P69905 whole entry): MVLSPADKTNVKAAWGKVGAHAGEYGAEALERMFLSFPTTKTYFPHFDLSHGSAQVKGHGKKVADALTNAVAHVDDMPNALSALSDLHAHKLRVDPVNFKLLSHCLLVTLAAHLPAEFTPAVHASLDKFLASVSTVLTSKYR

Sequence of recombinant human eNOS oxidase domain (domain or fragment) (P29474 2-1203): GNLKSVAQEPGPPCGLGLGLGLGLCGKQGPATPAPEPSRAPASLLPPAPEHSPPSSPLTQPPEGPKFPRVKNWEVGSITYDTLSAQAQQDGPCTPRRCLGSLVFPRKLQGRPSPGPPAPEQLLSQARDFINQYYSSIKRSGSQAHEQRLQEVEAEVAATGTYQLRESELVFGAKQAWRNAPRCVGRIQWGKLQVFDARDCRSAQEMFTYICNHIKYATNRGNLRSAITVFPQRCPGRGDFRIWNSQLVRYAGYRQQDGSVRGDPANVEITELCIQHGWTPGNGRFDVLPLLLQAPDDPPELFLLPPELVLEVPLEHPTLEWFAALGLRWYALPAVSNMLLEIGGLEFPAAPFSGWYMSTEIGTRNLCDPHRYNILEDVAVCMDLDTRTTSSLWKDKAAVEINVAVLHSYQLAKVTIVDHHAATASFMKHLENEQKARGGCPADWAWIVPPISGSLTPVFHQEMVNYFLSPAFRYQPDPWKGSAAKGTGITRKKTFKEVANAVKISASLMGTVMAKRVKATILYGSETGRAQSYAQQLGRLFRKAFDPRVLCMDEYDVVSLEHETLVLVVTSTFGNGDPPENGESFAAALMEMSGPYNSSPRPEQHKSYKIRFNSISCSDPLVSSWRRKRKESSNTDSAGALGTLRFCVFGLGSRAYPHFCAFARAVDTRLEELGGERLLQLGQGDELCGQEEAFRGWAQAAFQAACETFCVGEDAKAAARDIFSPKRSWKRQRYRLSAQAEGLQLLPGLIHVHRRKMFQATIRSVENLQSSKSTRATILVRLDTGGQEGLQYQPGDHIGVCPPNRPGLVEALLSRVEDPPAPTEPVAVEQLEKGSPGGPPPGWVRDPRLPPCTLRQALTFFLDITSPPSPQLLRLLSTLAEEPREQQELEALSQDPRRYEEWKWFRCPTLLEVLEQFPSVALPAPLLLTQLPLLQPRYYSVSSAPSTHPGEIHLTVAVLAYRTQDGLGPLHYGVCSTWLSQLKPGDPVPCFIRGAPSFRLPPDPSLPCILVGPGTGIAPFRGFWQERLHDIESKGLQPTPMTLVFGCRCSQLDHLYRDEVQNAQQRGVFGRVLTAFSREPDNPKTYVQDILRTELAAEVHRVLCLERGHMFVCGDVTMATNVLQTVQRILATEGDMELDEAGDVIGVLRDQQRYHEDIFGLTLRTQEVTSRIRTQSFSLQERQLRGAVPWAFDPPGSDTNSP
Sequence of Alpha globin (P69905 2-142): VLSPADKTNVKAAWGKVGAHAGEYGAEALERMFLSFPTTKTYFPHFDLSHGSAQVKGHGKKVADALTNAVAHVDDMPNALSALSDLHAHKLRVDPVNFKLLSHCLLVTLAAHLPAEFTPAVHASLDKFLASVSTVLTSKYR
Sequence of Endothelial nitric oxide synthase (Homo sapiens*) (P29474 66-492): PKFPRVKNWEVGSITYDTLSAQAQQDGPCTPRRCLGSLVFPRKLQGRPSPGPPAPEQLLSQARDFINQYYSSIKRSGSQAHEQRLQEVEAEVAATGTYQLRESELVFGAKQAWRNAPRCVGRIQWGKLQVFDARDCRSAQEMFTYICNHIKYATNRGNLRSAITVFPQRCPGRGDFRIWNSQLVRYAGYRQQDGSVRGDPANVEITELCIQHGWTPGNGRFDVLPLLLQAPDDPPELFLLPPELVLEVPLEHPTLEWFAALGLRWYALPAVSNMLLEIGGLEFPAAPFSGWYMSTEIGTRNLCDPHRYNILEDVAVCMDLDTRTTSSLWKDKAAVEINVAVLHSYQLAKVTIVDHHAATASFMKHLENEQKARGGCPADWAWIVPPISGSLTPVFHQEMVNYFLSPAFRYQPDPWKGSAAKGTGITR

Kd [1] [µM] | Kd [2] [µM] | Substance
1.3 |  | Alpha globin (from UniProt P69905)
 | 1.31 | recombinant human eNOS oxidase domain (domain or fragment)

Source: publication doi:10.1101/2021.04.06.21255004
